How the values were obtained:
TGA2.1 [1] = molecular target: T1, TGA2.1 (Oryza sativa (rice), UniProt Q7X993 1-334); test: competition; EMSA competitor 5X, 20X, 100X against biotin-wt probe; EMSA with biotin probe, chemiluminescent detection; buffer, salt, pH and temperature not stated; conditions: protein: recombinant; chain copies: 2
T1 sequence: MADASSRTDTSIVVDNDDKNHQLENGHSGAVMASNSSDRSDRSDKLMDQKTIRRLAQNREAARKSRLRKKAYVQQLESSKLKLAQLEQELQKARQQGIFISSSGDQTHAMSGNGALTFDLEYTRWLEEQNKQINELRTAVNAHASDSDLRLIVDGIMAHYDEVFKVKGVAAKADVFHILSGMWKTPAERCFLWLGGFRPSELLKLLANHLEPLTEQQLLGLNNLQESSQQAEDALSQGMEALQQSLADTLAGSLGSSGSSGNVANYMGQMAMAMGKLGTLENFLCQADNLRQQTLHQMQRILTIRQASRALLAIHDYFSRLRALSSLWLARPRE

TGA2.1 [2] = molecular target: T1, TGA2.1; test: EMSA; competed by unlabeled wt oligonucleotide (5X, 20X, 100X tested); EMSA with biotin probe, chemiluminescent detection; buffer, salt, pH and temperature not stated; conditions: protein: recombinant; chain copies: 2; label: 5'-biotin on top strand (probe)

B1: CRK10 promoter TGA site mt competitor (dsDNA)
DNA 1: CTCTTTGTGGTGTTGTTCTTC
DNA 2: GAAGAACAACACCACAAAGAG
- binding result (TGA2.1 [1]): no binding

B2: CRK10 promoter TGA site wt probe (dsDNA)
DNA 1: CTCTTTGTGACGTTGTTCTTC
DNA 2: GAAGAACAACGTCACAAAGAG
- binding result (TGA2.1 [2]): binds

Reference: paper PMC4866720, “A Genetic Screen Identifies a Requirement for Cysteine-Rich–Receptor-Like Kinases in Rice NH1 (OsNPR1)-Mediated Immunity”
